Measurements published in paper PMC2199739.

How the values were obtained:
[1] = biological target: urokinase-type plasminogen activator receptor (uPAR) on HT 1080 cells (human (endogenous in HT 1080)) (UniProt Q03405); assay: radioligand binding
[2] = biological target: human uPAR overexpressed on MCF-7 cells (clone M5) (human) (UniProt Q03405); assay: radioligand binding

Q: How did the Kd [1] turn out when “^125I-DIP-uPA (radioiodinated two chain urokinase-type plasminogen activator inactivated with diisopropylfluorophosphate) (ligand)” was run?
A: Its Kd is 1.2 nM.

Q: And the Kd [2]?
A: Its Kd is 1.2 nM.
